According to the supplement of paper PMC12764529:
± gives the half width of the 95% confidence interval.

assay: folding stability dG unfold (combined trypsin and chymotrypsin); higher = more stable
In short: (§1)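 K50 was inferred by Bayesian fitting of sequencing counts obtained after protease digestion of designed mini-proteins. Unfolding free energy was derived by comparison with a sequence-predicted unfolded-state K50 and a shared folded-state K50, for each protease or both combined. The mini-proteins were under 80 residues, had no cysteine, were carried in a PA-tagged cDNA display construct, and were kept only if AlphaFold2 dimer inter-PAE exceeded 15.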

Row | Sequence | folding stability dG unfold [kcal/mol]
1 | SAGGSAGMMPTKITVTLTLPPDAPDVEAVAERLAAELGVEVSNAEVLEVRRLPDGSREVVIELTLLSAGGSA [r15_654_JUSTAS] | 4.17 ± 0.1
2 | SAGGSAGGSAGDDNKKKPKPKIEIQPVRMTMPFPENGLRIEIDIWVIKDGNIIFMIEWYPSAGGSAGGSAGG [r11_463_TrROS] | 3.3 ± 0.11
3 | SAGGTIIINFTWSDIKDILDYLKDNKDWKITIWMGNKPVEYPLDDLEEILQNIPMPPGQPFWIEITPSAGGS [r16_377_TrROS] | 4.36 ± 0.17
4 | SAGGSAGGSSQRIKIEDIEPPPNGQWRVRIKMPNGKEREVTMPPDKLEIELPPNITDVSLWPVSAGGSAGGS [r20_194_TrROS] | 4.01 ± 0.33
5 | SAGGSAGGSAGMAEKLPSLSLFYLPETGDLVLIREETYVDPNDPDKSIVKQEIYVLPPEYSAGGSAGGSAGG [r17_241_TrMRF] | 1.51 ± 0.096
6 | SAGGSKIHIPIDPESGNFRIKVYPPDEPKEVSIQFKDPDDPEEFMDRAIEEANEYANNGYRVEIEPSAGGSA [r2_118_TrROS] | -0.668 ± 0.48
7 | SAGGEVKVVKAEVTTLPDGRKLVRLLLEVGGKFYPVLIDVHPDGVRITFPDGKTATIKLEDLKNLTWSAGGS [r16_593_TrMRF] | 2.15 ± 0.12
8 | SAGSPVTLELRVTRPRADAATGAPATATETVTVTLPAAVVAAGLSPEEIARLLEAANPGATVELTAVASAGG [r19_110_JUSTAS] | 0.582 ± 0.07
9 | SAGGAPNWKIEKIEIEYPGRKIEVWRHDNMWFIHIPAPPGYPIRIKIKIEPDNGETQTQERTFPIPPPSAGG [r13_191_TrROS] | 2.37 ± 0.35
10 | SAMYKIRLKNGEEIELEGMSIEELEKLFPDVELEIEKVEKVPVVKAPSKEEAEELAKKLPPGAKIIVEDSAG [r14_445_TrROS_Hall] | 0.324 ± 0.3
11 | SAGGSKKVILIAKIPNEDKYLVLIASDSPELVKEAAKKAKKPGFYVLGEMTVEEAVKKLGLPPELFKSAGGS [r16_438_TrMRF] | 2.23 ± 0.19
12 | SAGGSAGGSAGGMTLEIEINGLKVRIEFDEETKELRIEVEPAPPPVVVYEKEKLEEEEESAGGSAGGSAGGS [r10_724_TrROS_Hall] | 1.46 ± 0.18
13 | SMEPGELRLRAKVPLRIVNPDGEEIADIEIEVRSIEELEEAIAEAARELAERLGRPDAPVVIDDIEVEDESA [r9_376_TrMRF] | 0.482 ± 0.23
14 | AVTVTVEPVGDALVVTVDLPRADGSPVRVVALFDPDGTVARVLVARSDPGPPRFVEVPAAPASDPVLLAAGS [r1_301_TrMRF] | 0.993 ± 0.13
15 | SAGGSAGGSAGGDSVQIEFPDNGMTITINPNNGPISIMEPDGKKKTYPVDSPEEALDAISAGGSAGGSAGGS [r10_849_TrROS] | 1.14 ± 0.061
16 | SMTFVLPYPKEGKTITVTYPDLESAVSSSGVATFQDPALLAQVIAALPSSVIVKEIKKNPDGTYTLTVAASA [r9_997_JUSTAS] | 0.483 ± 0.1
17 | SAGGSAKKVVLLTIPPSANLPPNSKLVVKFPNGKEKTYKFNDKPVVILLVTDNNGNFSFGVSVEDKSAGGSA [r15_992_TrMRF] | 2.68 ± 0.3
18 | SAGGSAGGSMTLIGTTTLPSPDGSLVTVDTYKVPGSDELVAKVTTLNGTTWTTETRPLSEFLKSAGGSAGGS [r12_1063_JUSTAS] | 0.646 ± 0.1
19 | SAGGSMPPIVASVVEVRFYRFEEEDRERLEAEVTLKLKDGSTATIRLEFPDLSEEELLKTVEETLLSAGGSA [r2_26_JUSTAS] | 2.31 ± 0.043
20 | SAGGSAGGSAGGKKYKVVSIEKTKDYVRITIYNEETGELKTFTFPPGSTVTIKPGDTLTSAGGSAGGSAGGS [r10_834_TrROS_Hall] | 4.42 ± 0.12
21 | SAGGSVEFEETITDPLKSLEEAKALAEEIEAELKAKGYKVTVTVTVVPPGSVTATITVTTDPAKGKKASAGG [r13_697_JUSTAS] | 0.82 ± 0.22

assay: folding stability dG unfold from chymotrypsin proteolysis; higher = more stable
In short: as §1

Row | Sequence | folding stability dG unfold [kcal/mol]
22 | SAGGSATAEELADEIANYMADRHGMEVKKIEITDVDNDRVVFRAEVEMPNPNGKKHTHPFTIEIPVSAGGSA [r15_276_TrROS] | 0.303 ± 0.31
23 | SAGGSAGGSGYTTTTSTSISLSPTSFTVTTTTTTTDPVTKTTTVTTTTTTVPLPPSLLSLVSSSAGGSAGGS [r12_885_JUSTAS] | 2.97 ± 0.052
24 | SASVEEVIEEAKELAKKLGAYVIVTVYKNNKKIGTYEYPSPSKNSPPTSITIESPDPNYKVKITIYPPGSAG [r14_728_JUSTAS] | 3.12 ± 0.032
25 | SAGGSAGGSAGGMTQEVTLEPLPDGTVKLLSVEAPESTVTVPVKLPGGGEEVRTLPPEALSAGGSAGGSAGG [r7_829_JUSTAS] | -0.255 ± 0.15
26 | SAGGSAKILEEALEALKKAKPGEEVEIEIEIEVNGKKYRIKVKVTYDEETGKITIEIVEIEELPEESAGGSA [r15_724_TrROS_Hall] | 4.11 ± 0.14
27 | SAGGKLTITLPPGVKEVKIEVDKETNEVKVTVTVEVTDENGKKHKVTRTFTFKLEDGETVTVTVTLPSAGGS [r16_552_TrROS_Hall] | 5.43 ± 0.13
28 | SAGGSAGGSAGGGLGYRTLTGRVEFELNITYLTEDGSPATLNLRFELELRFVVPVPPDYPSAGGSAGGSAGG [r7_926_TrMRF] | 5.54 ± 0.098
29 | SAGGKEVVIVFPLPENFEAEIFIPDRPVVRLENGLLVAVAPENVPALIVIRNPNGEELVLPVELLDLSAGGS [r8_72_TrMRF] | 1.28 ± 0.014
30 | SAGGSAGGSAKEIKLKITKVTFTENEDGTLTATFELEDGYRVTIKFNKKTNKVEIKIEPLPSAGGSAGGSAG [r3_438_TrROS_Hall] | 4.12 ± 0.082
31 | SAGGSAGGSAGGWNYIIFTIRYEFEYKDPNGKTMKHEVEITIIIPIPPIKRDEDGKYKLSAGGSAGGSAGGS [r10_168_TrROS] | 3.35 ± 0.17
32 | SAGGGHMMPNITVDVEEEVFTLPDGSILTRTTVTVTLPNGKKTTVETEYFYDTKTGTVSSKVVKVEASAGGS [r16_166_JUSTAS] | 3.45 ± 0.082
33 | SAGGSAEETIEIEIPLEDLKPRKDGKLTEEEIKERLRKLIEELTGKKPKEITVERDENGTLRITIRSAGGSA [r15_562_TrROS_Hall] | 2.54 ± 0.18
34 | SATFKPGETVTIDELTIDGATITKVTVTVNADGTITITATIKPAPPPPPPPEVVRNPETGKTYPAGEVKDSA [r9_603_TrROS_Hall] | 0.615 ± 0.087
35 | SAGGSAGGSAEYRVVVVPPVPTVLIFVKPDRVYVVDLDPATGRATIRPVNVPPNVLPESLLTSAGGSAGGSA [r18_59_TrMRF] | 1.67 ± 0.06
36 | SAGGSAGGSAGKPEIEMEIETRTVRLPDGYLLRFSRMRITLPDGSKFEFLSVEIIRLEDLSAGGSAGGSAGG [r17_312_TrROS_Hall] | 5.56 ± 0.14
37 | SAVELPPDASITAVTVDPSGSRTVEVEVKTTTAYVYDPATGTTTTVPPGVRTVVTLPADVPVTVSFTSPSAG [r14_385_JUSTAS] | 0.484 ± 0.084
38 | SASLEELLAELPFDAEVETKDEEVVVKITNPENPDPNVSYTFNIPSSSGVPITVNVTEVEGGTKSVKALSAG [r14_401_JUSTAS] | -0.108 ± 0.24
39 | SADGKVKVVVNLRITVTPLSPDGTPQPLPAASIPLVFEGDANDPEAVEQAVRDVLDALAPLFPDAEIVVDSA [r9_1112_TrMRF] | 1.98 ± 0.046
40 | SAGGSAGGSAGSKTPSVLVIEVDANTSIEKILELYKKNYPVGEIRVFTRPDGRKIAVITGSAGGSAGGSAGG [r11_97_TrMRF] | 2.33 ± 0.069
41 | SAGGSAGGSAEEVTVTVKIERTTEDGEKVEETITVTVPAEKLDELKKAAEEAGFTVVEVTPSAGGSAGGSAG [r3_453_TrROS_Hall] | 2.19 ± 0.14
42 | SAGGAPSSSPIPIDLGDPNDEEKLKAEVEAIEKEYAAKGVTPITVERVGENKYRIKIPTGGVATVALSAGGS [r16_703_JUSTAS] | -0.0876 ± 0.12

Row | Sequence | folding stability dG unfold [kcal/mol]
43 | SAGGSAGMMPTKITVTLTLPPDAPDVEAVAERLAAELGVEVSNAEVLEVRRLPDGSREVVIELTLLSAGGSA [r15_654_JUSTAS] | 4.18 ± 0.094
44 | SAGGSAGGSAGDDNKKKPKPKIEIQPVRMTMPFPENGLRIEIDIWVIKDGNIIFMIEWYPSAGGSAGGSAGG [r11_463_TrROS] | 3.72 ± 0.17
45 | SAGGTIIINFTWSDIKDILDYLKDNKDWKITIWMGNKPVEYPLDDLEEILQNIPMPPGQPFWIEITPSAGGS [r16_377_TrROS] | 4.32 ± 0.14
46 | SAGGSAGGSSQRIKIEDIEPPPNGQWRVRIKMPNGKEREVTMPPDKLEIELPPNITDVSLWPVSAGGSAGGS [r20_194_TrROS] | 3.91 ± 0.33
47 | SAGGSAGGSAGMAEKLPSLSLFYLPETGDLVLIREETYVDPNDPDKSIVKQEIYVLPPEYSAGGSAGGSAGG [r17_241_TrMRF] | 1.74 ± 0.13
48 | SAGGSKIHIPIDPESGNFRIKVYPPDEPKEVSIQFKDPDDPEEFMDRAIEEANEYANNGYRVEIEPSAGGSA [r2_118_TrROS] | -0.278 ± 0.58
49 | SAGGEVKVVKAEVTTLPDGRKLVRLLLEVGGKFYPVLIDVHPDGVRITFPDGKTATIKLEDLKNLTWSAGGS [r16_593_TrMRF] | 1.73 ± 0.14
50 | SAGSPVTLELRVTRPRADAATGAPATATETVTVTLPAAVVAAGLSPEEIARLLEAANPGATVELTAVASAGG [r19_110_JUSTAS] | 0.259 ± 0.14
51 | SAGGAPNWKIEKIEIEYPGRKIEVWRHDNMWFIHIPAPPGYPIRIKIKIEPDNGETQTQERTFPIPPPSAGG [r13_191_TrROS] | 2.83 ± 0.073
52 | SAMYKIRLKNGEEIELEGMSIEELEKLFPDVELEIEKVEKVPVVKAPSKEEAEELAKKLPPGAKIIVEDSAG [r14_445_TrROS_Hall] | 0.233 ± 0.36
53 | SAGGSKKVILIAKIPNEDKYLVLIASDSPELVKEAAKKAKKPGFYVLGEMTVEEAVKKLGLPPELFKSAGGS [r16_438_TrMRF] | 2.5 ± 0.051
54 | SAGGSAGGSAGGMTLEIEINGLKVRIEFDEETKELRIEVEPAPPPVVVYEKEKLEEEEESAGGSAGGSAGGS [r10_724_TrROS_Hall] | 1.52 ± 0.05
55 | SMEPGELRLRAKVPLRIVNPDGEEIADIEIEVRSIEELEEAIAEAARELAERLGRPDAPVVIDDIEVEDESA [r9_376_TrMRF] | 0.643 ± 0.14
56 | AVTVTVEPVGDALVVTVDLPRADGSPVRVVALFDPDGTVARVLVARSDPGPPRFVEVPAAPASDPVLLAAGS [r1_301_TrMRF] | 1.38 ± 0.14
57 | SAGGSAGGSAGGDSVQIEFPDNGMTITINPNNGPISIMEPDGKKKTYPVDSPEEALDAISAGGSAGGSAGGS [r10_849_TrROS] | 1.42 ± 0.042
58 | SMTFVLPYPKEGKTITVTYPDLESAVSSSGVATFQDPALLAQVIAALPSSVIVKEIKKNPDGTYTLTVAASA [r9_997_JUSTAS] | -0.066 ± 0.24
59 | SAGGSAKKVVLLTIPPSANLPPNSKLVVKFPNGKEKTYKFNDKPVVILLVTDNNGNFSFGVSVEDKSAGGSA [r15_992_TrMRF] | 3.44 ± 0.17
60 | SAGGSAGGSMTLIGTTTLPSPDGSLVTVDTYKVPGSDELVAKVTTLNGTTWTTETRPLSEFLKSAGGSAGGS [r12_1063_JUSTAS] | 0.913 ± 0.14
61 | SAGGSMPPIVASVVEVRFYRFEEEDRERLEAEVTLKLKDGSTATIRLEFPDLSEEELLKTVEETLLSAGGSA [r2_26_JUSTAS] | 2.525 ± 0.022
62 | SAGGSAGGSAGGKKYKVVSIEKTKDYVRITIYNEETGELKTFTFPPGSTVTIKPGDTLTSAGGSAGGSAGGS [r10_834_TrROS_Hall] | 4.53 ± 0.15
63 | SAGGSVEFEETITDPLKSLEEAKALAEEIEAELKAKGYKVTVTVTVVPPGSVTATITVTTDPAKGKKASAGG [r13_697_JUSTAS] | 1.34 ± 0.072
